First the molecules themselves.
T1: mouse p28 (IL‐27p28), alone (mouse, UniProt Q8K3I6 29-234)
T1 construct: IL-27 p28 subunit, mouse; source: recombinantly produced
T1 sequence (looked up): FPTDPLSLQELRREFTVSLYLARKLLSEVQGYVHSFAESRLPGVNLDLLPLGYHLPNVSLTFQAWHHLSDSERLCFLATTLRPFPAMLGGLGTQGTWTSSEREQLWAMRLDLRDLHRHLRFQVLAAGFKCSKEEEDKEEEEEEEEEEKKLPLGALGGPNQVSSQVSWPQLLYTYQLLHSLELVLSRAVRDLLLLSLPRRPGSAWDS

T2: biotinylated mouse IL‐27Rα (amino acids 28–224) (mouse, UniProt O70394 28-224, N‐terminal biotinylated in vitro using EZ‐Link Sulfo‐NHS‐SS‐Biotin at pH 6.5)
T2 chain: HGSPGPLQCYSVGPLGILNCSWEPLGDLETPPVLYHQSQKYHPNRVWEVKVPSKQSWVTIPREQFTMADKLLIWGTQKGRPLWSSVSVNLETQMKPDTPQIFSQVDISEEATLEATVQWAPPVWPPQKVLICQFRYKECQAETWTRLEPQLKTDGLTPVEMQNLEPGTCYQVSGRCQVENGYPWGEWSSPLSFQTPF

T3: C‐terminal biotinylated mouse GP130 with biotin acceptor peptide (mouse, UniProt Q00560 23-319, biotin on the biotin acceptor peptide (BirA ligase))
T3 chain: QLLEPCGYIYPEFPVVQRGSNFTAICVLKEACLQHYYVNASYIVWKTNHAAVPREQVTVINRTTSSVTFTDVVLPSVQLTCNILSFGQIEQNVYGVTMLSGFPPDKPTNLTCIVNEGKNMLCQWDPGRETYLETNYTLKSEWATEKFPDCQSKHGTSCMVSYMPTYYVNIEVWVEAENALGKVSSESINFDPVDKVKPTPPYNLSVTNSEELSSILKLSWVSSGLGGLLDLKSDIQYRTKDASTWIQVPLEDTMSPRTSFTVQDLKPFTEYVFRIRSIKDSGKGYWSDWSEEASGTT

T4: C‐terminal biotinylated mouse GP130 with biotin acceptor peptide (mouse, UniProt Q00560 23-319, biotin on the biotin acceptor peptide (BirA ligase))
T4 construct: GP130, murine, amino acids 23–319; also called biotinylated GP130; source: insect cells (pAcGP67‐A vector), purified; biotinylated with BirA ligase
T4 sequence (looked up): T3 chain

B1: biotinylated mouse IL‐27Rα (amino acids 28–224) (receptor, UniProt O70394 28-224, looked up)
chain: T2 chain
modifications: N‐terminal biotinylated in vitro using EZ‐Link Sulfo‐NHS‐SS‐Biotin at pH 6.5
notes: IL-27 receptor alpha, murine, amino acids 28–224; Same construct as m2, chemically biotinylated for capture on the streptavidin chip; also called biotinylated IL‐27Rα; source: Trichoplusia ni (High Five) cells, baculovirus, secreted; purified (Ni-NTA, SEC); biotinylated in vitro
B2: murine IL‐27, linker‐connected single‐chain variant (p28 + EBI3) (ligand)
chain: GSYTETALVALSQPRVQCHASRYPVAVDCSWTPLQAPNSTRSTSFIATYRLGVATQQQSQPCLQRSPQASRCTIPDVHLFSTVPYMLNVTAVHPGGASSSLLAFVAERIIKPDPPEGVRLRTAGQRLQVLWHPPASWPFPDIFSLKYRLRYRRRGASHFRQVGPIEATTFTLRNSKPHAKYCIQVSAQDLTDYGKPSDWSLPGQVESAPHKPRGGGGSGGGGSVESGENLYFQGFPTDPLSLQELRREFTVSLYLARKLLSEVQGYVHSFAESRLPGVNLDLLPLGYHLPNVSLTFQAWHHLSDSERLCFLATTLRPFPAMLGGLGTQGTWTSSEREQLWAMRLDLRDLHRHLRFQVLAAGFKCSKEEEDKEEEEEEEEEEKKLPLGALGGPNQVSSQVSWPQLLYTYQLLHSLELVLSRAVRDLLLLSLPRRPGSAWDS

For experiment [1], the target named is T1, mouse p28 (IL‐27p28), alone. As to the kind of experiment: SPR; Biacore T100; biotinylated receptor immobilised on SA chip (~100 RU); p28 flowed, 1:2 dilution series from 20 μM; 25°C; 10 mM HEPES, 150 mM NaCl, 0.05% TWEEN‐20, pH 7.2, 0.5% BSA; equilibrium analysis. To be noted: both partners purified. In general terms: In SPR one partner is held on a chip, and binding of the other changes the refractive index at the surface.

Experiment [2] concerns the target T2, biotinylated mouse IL‐27Rα (amino acids …). As to the kind of experiment: SPR.
For experiment [3], the target named is T3, C‐terminal biotinylated mouse GP130 …. As to the kind of experiment: SPR.
Experiment [4] has as its target B1. Kind of experiment: SPR; Biacore T100; biotinylated receptor immobilised on SA chip (~100 RU); IL‐27 flowed, 1:3 dilution series from 100 nM, 30 μl/min; 25°C; 10 mM HEPES, 150 mM NaCl, 0.05% TWEEN‐20, pH 7.2, 0.5% BSA; kinetic 1:1 fit. To be noted: both partners purified.
In experiment [5] the target is T4, C‐terminal biotinylated mouse GP130 …. Described as above. The settings on record: both partners purified.

In general, Kd refers to the constant that tells how readily two partners part at equilibrium. A lower Kd goes with tighter binding. For orientation: koff means the rate constant with which the complex falls apart.

In experiment [1], B1 registered a Kd of 1700 nM.

Regarding B2, the values for the koff in experiment [2] and in experiment [3] were 0.001 s⁻¹ and 0.02 s⁻¹, respectively. In addition, the results for the Kd in experiment [4] and in experiment [5] were 0.28 nM and 2.1 nM, respectively.
